In patent US20030143656A1:

Tests used:
[1] = molecular target: endogenous PDK1 (293 cells) (human) (UniProt O15530); assay: cell-based or functional assay
[2] = molecular target: PIFtide (human); assay: method not stated (reference mark lost)
Chain of PIFtide (human) (peptide, as listed by the source): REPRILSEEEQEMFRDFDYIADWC

Chain of endogenous PDK1 (293 cells) (human) (O15530 whole entry): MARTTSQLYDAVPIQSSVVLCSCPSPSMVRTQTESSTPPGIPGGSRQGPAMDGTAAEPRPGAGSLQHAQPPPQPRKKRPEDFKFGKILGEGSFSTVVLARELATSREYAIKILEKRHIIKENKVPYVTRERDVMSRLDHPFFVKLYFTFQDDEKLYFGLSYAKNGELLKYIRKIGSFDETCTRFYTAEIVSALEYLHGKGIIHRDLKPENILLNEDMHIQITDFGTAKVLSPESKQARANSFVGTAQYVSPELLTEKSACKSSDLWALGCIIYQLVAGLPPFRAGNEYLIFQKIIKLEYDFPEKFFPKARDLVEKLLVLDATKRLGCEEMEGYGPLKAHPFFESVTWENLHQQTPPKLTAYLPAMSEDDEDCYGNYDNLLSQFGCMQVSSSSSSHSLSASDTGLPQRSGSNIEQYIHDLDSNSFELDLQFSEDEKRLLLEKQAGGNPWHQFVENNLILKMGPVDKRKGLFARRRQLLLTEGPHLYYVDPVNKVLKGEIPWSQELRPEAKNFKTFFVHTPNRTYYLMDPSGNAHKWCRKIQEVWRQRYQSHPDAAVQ

| Substance | activation of p70 S6K on cotransfection with GST-F977A-PIF [1] | fold decrease in affinity for PIFtide [2] |
| --- | --- | --- |
| GST-F977A-PIF (from UniProt Q16513 908-984) | 50% | – |
| GST-PDK1 I119A (from UniProt O15530 1-556) (enzyme) | – | 10 fold |
